Molecular target: EPHB1 (UniProt P54762)
Assay: phosphorylation enrichment, bacterial display (enrichment ratio); higher = better substrate or ligand; peptides without Tyr show the background
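Further: 11-residue human phosphosite peptides and single-mutation variants displayed on the E. coli surface, counted by deep sequencing, each peptide's frequency after selection divided by its frequency in the unselected input library; frequency after pTyr selection over input frequency; kinase dosed for 20-30% of maximal phosphorylation in three min.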

EPHB1, sequence (P54762 whole entry, looked up): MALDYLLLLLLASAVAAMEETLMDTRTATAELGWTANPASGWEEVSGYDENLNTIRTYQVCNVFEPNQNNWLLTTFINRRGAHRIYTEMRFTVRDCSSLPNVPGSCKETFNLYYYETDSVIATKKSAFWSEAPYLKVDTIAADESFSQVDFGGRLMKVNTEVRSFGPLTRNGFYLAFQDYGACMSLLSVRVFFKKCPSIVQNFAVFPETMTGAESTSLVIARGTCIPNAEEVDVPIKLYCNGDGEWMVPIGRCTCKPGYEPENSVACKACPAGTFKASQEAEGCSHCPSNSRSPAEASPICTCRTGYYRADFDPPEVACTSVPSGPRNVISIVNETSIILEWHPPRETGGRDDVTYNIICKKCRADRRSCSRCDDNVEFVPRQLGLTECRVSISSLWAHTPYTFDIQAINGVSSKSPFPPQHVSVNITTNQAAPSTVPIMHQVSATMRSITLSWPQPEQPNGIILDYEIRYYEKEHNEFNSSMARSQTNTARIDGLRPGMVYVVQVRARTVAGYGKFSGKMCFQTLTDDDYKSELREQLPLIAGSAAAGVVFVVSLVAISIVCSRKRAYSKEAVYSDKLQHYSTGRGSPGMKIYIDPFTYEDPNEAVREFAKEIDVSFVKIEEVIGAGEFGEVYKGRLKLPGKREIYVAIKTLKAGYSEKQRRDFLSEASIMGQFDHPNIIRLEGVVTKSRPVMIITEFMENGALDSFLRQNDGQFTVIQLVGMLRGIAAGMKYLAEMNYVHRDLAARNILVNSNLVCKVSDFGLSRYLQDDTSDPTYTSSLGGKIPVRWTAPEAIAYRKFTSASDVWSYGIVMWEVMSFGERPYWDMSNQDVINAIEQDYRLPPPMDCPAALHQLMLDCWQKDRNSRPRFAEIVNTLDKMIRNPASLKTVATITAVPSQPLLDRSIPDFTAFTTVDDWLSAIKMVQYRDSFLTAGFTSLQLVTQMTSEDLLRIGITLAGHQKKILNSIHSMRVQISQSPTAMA

First: AFGTVYKGLWI [EGFR_Y727]
Second: EYGRRYGFSRQ [CCDC93_Y209]
The phosphorylation enrichment of the first is higher: 0.532 for the first, 0.41 for the second.

First: RLASVYTKRCS [CPT2_Y508_P504L]
Second: TLQVMYGCDVG [HLA-B_Y123_S121V]
The phosphorylation enrichment of the first is higher: 0.706 for the first, 0.564 for the second.

First: PVEAAYQKVVA [HBB_Y131_Q128E]
Second: LYSINYLHFGE [KDM4C_Y201]
The phosphorylation enrichment of the first is lower: 0.397 for the first, 10.7 for the second.

First: SSVKLYRVYCD [FGB_Y266_P265L]
Second: VTVLDYDKTGK [SYT1_Y365_I368T]
The phosphorylation enrichment of the first is higher: 0.618 for the first, 0.365 for the second.

Compared with HFGCVYHGTLL [MET_Y1093], REGAKYVSHGT [ASS1_Y113_A118T] is lower in phosphorylation enrichment: 1.21 for the first, 0.513 for the second.

Compared with SLLVVYPWTQR [HBB_Y36_R31S], WQQQSYLDSEI [CTNNB1_Y30_G34E] is higher in phosphorylation enrichment: 0.462 for the first, 0.512 for the second.

Compared with PVKSEYSSIKL [NPC2_Y119_P120S], QKKPCYEIRWK [PDGFRB_Y562_R561C] is higher in phosphorylation enrichment: 0.579 for the first, 0.958 for the second.

Going from VEFAKYGSLQG [RET_Y809_R813Q_YF] to SIKDKHVTALY [KCNH2_Y611_Y611H], the phosphorylation enrichment falls from 0.536 to 0.387.

Going from KNNDGYIDYAE [MCFD2_Y135] to EEGENYQKGEQ [CHGB_Y173_R178Q], the phosphorylation enrichment rises from 0.538 to 0.592.

Compared with EDSEYYRAFEE [CASQ2_Y179_K180R], SYDLDYDSVQP [MYC_Y16_N11S] is higher in phosphorylation enrichment: 0.823 for the first, 1.03 for the second.

Compared with SNKLFYQLEQE [PDPR_Y110_YF], GCAGKYIAMVM [CYP19A1_Y441] is lower in phosphorylation enrichment: 0.628 for the first, 0.548 for the second.

First: FEEDPYLVVNP [MCM6_Y810_YF]
Second: DLAHKYHGGGG [HBB_Y146_A141D]
The phosphorylation enrichment of the first is higher: 0.743 for the first, 0.333 for the second.

Compared with AIIGIYILRDN [CDH23_Y2949_D2954N], NTDETYCIDNE [TUBB2B_Y200] is higher in phosphorylation enrichment: 0.687 for the first, 0.813 for the second.

Compared with LFSINYLHFGE [KDM4C_Y201_YF], QGIPRYHSQSP [FOXF1_Y331] is lower in phosphorylation enrichment: 1.3 for the first, 0.783 for the second.

Compared with RDLEQYVNNVN [PCDH19_Y1097], KEEEDYKEENN [BMS1_Y651] is lower in phosphorylation enrichment: 0.64 for the first, 0.532 for the second.

Going from SISLKYEGRVF [ABL1_Y167_R166K_YF] to TIQMMYGCDVG [HLA-A_Y123_I121M], the phosphorylation enrichment rises from 0.655 to 0.718.

KIDAKYKKKIE [WDR19_Y1230] showed a phosphorylation enrichment of 0.27.

Molecular target: Jak2 (UniProt O60674)
Sequence (O60674 whole entry, looked up): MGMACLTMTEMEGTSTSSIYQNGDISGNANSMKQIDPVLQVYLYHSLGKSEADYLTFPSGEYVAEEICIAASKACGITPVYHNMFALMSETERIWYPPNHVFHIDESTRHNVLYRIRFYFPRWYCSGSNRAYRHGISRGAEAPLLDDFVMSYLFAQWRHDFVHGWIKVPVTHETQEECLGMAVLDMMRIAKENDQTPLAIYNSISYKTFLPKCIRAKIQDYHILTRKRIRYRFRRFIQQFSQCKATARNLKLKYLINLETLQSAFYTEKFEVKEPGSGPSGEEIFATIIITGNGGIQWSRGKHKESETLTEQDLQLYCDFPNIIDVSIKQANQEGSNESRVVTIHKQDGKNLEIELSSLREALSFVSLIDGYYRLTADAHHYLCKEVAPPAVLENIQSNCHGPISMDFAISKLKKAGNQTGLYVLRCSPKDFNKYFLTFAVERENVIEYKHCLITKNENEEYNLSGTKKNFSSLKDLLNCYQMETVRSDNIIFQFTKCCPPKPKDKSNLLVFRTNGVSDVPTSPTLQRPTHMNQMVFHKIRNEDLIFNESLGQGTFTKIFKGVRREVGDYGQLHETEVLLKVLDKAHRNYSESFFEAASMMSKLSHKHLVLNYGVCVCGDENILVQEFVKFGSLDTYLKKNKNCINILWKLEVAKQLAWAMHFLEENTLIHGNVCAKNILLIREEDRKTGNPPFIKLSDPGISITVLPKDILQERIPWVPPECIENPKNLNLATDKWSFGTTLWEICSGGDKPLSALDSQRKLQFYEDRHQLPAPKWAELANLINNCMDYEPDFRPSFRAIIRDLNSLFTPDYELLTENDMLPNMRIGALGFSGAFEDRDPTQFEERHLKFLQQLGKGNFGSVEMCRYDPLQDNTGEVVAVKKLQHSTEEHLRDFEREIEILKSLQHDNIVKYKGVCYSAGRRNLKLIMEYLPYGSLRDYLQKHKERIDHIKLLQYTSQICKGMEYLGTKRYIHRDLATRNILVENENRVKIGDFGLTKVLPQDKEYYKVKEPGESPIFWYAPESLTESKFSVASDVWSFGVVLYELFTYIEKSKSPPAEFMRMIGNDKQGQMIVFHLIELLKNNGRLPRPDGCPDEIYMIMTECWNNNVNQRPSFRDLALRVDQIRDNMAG
Assay: as above

Going from AFGTVYKGLWI [EGFR_Y727] to EYGRRYGFSRQ [CCDC93_Y209], the phosphorylation enrichment falls from 1.16 to 0.475.

Going from RLASVYTKRCS [CPT2_Y508_P504L] to TLQVMYGCDVG [HLA-B_Y123_S121V], the phosphorylation enrichment rises from 0.739 to 1.1.

Compared with PVEAAYQKVVA [HBB_Y131_Q128E], LYSINYLHFGE [KDM4C_Y201] is higher in phosphorylation enrichment: 0.556 for the first, 1.1 for the second.

First: SSVKLYRVYCD [FGB_Y266_P265L]
Second: VTVLDYDKTGK [SYT1_Y365_I368T]
The phosphorylation enrichment of the first is higher: 0.955 for the first, 0.517 for the second.

Going from HFGCVYHGTLL [MET_Y1093] to REGAKYVSHGT [ASS1_Y113_A118T], the phosphorylation enrichment falls from 1.28 to 0.898.

First: SLLVVYPWTQR [HBB_Y36_R31S]
Second: WQQQSYLDSEI [CTNNB1_Y30_G34E]
The phosphorylation enrichment of the first is lower: 0.804 for the first, 0.96 for the second.

Compared with PVKSEYSSIKL [NPC2_Y119_P120S], QKKPCYEIRWK [PDGFRB_Y562_R561C] is lower in phosphorylation enrichment: 0.737 for the first, 0.653 for the second.

Going from VEFAKYGSLQG [RET_Y809_R813Q_YF] to SIKDKHVTALY [KCNH2_Y611_Y611H], the phosphorylation enrichment falls from 0.846 to 0.43.

Compared with KNNDGYIDYAE [MCFD2_Y135], EEGENYQKGEQ [CHGB_Y173_R178Q] is higher in phosphorylation enrichment: 1.01 for the first, 1.4 for the second.

First: EDSEYYRAFEE [CASQ2_Y179_K180R]
Second: SYDLDYDSVQP [MYC_Y16_N11S]
The phosphorylation enrichment of the first is higher: 1.37 for the first, 1.04 for the second.

Compared with SNKLFYQLEQE [PDPR_Y110_YF], GCAGKYIAMVM [CYP19A1_Y441] is lower in phosphorylation enrichment: 1.3 for the first, 0.889 for the second.

Compared with FEEDPYLVVNP [MCM6_Y810_YF], DLAHKYHGGGG [HBB_Y146_A141D] is lower in phosphorylation enrichment: 1.54 for the first, 0.545 for the second.

First: AIIGIYILRDN [CDH23_Y2949_D2954N]
Second: NTDETYCIDNE [TUBB2B_Y200]
The phosphorylation enrichment of the first is lower: 1.05 for the first, 1.53 for the second.

First: LFSINYLHFGE [KDM4C_Y201_YF]
Second: QGIPRYHSQSP [FOXF1_Y331]
The phosphorylation enrichment of the first is higher: 1.29 for the first, 0.691 for the second.

Compared with RDLEQYVNNVN [PCDH19_Y1097], KEEEDYKEENN [BMS1_Y651] is lower in phosphorylation enrichment: 1.09 for the first, 1 for the second.

Going from SISLKYEGRVF [ABL1_Y167_R166K_YF] to TIQMMYGCDVG [HLA-A_Y123_I121M], the phosphorylation enrichment rises from 1.13 to 1.31.

KIDAKYKKKIE [WDR19_Y1230] was tested, and the phosphorylation enrichment was 0.594.

Tested on: c-Abl (mouse)
Assay: as above

Going from AFGTVYKGLWI [EGFR_Y727] to EYGRRYGFSRQ [CCDC93_Y209], the phosphorylation enrichment falls from 0.724 to 0.525.

Going from RLASVYTKRCS [CPT2_Y508_P504L] to TLQVMYGCDVG [HLA-B_Y123_S121V], the phosphorylation enrichment rises from 0.643 to 0.849.

Going from PVEAAYQKVVA [HBB_Y131_Q128E] to LYSINYLHFGE [KDM4C_Y201], the phosphorylation enrichment rises from 0.601 to 2.08.

Compared with SSVKLYRVYCD [FGB_Y266_P265L], VTVLDYDKTGK [SYT1_Y365_I368T] is lower in phosphorylation enrichment: 0.718 for the first, 0.452 for the second.

Compared with HFGCVYHGTLL [MET_Y1093], REGAKYVSHGT [ASS1_Y113_A118T] is lower in phosphorylation enrichment: 1.33 for the first, 0.517 for the second.

First: SLLVVYPWTQR [HBB_Y36_R31S]
Second: WQQQSYLDSEI [CTNNB1_Y30_G34E]
The phosphorylation enrichment of the first is higher: 0.602 for the first, 0.581 for the second.

First: PVKSEYSSIKL [NPC2_Y119_P120S]
Second: QKKPCYEIRWK [PDGFRB_Y562_R561C]
The phosphorylation enrichment of the first is higher: 1.03 for the first, 0.652 for the second.

Compared with VEFAKYGSLQG [RET_Y809_R813Q_YF], SIKDKHVTALY [KCNH2_Y611_Y611H] is lower in phosphorylation enrichment: 0.619 for the first, 0.529 for the second.

Compared with KNNDGYIDYAE [MCFD2_Y135], EEGENYQKGEQ [CHGB_Y173_R178Q] is higher in phosphorylation enrichment: 0.656 for the first, 0.898 for the second.

Going from EDSEYYRAFEE [CASQ2_Y179_K180R] to SYDLDYDSVQP [MYC_Y16_N11S], the phosphorylation enrichment falls from 0.915 to 0.741.

First: SNKLFYQLEQE [PDPR_Y110_YF]
Second: GCAGKYIAMVM [CYP19A1_Y441]
The phosphorylation enrichment of the first is higher: 0.791 for the first, 0.712 for the second.

Going from FEEDPYLVVNP [MCM6_Y810_YF] to DLAHKYHGGGG [HBB_Y146_A141D], the phosphorylation enrichment falls from 0.87 to 0.394.

Going from AIIGIYILRDN [CDH23_Y2949_D2954N] to NTDETYCIDNE [TUBB2B_Y200], the phosphorylation enrichment rises from 0.888 to 0.982.

Going from LFSINYLHFGE [KDM4C_Y201_YF] to QGIPRYHSQSP [FOXF1_Y331], the phosphorylation enrichment rises from 0.953 to 1.4.

Going from RDLEQYVNNVN [PCDH19_Y1097] to KEEEDYKEENN [BMS1_Y651], the phosphorylation enrichment falls from 0.968 to 0.75.

First: SISLKYEGRVF [ABL1_Y167_R166K_YF]
Second: TIQMMYGCDVG [HLA-A_Y123_I121M]
The phosphorylation enrichment of the first is lower: 0.661 for the first, 0.822 for the second.

Work on KIDAKYKKKIE [WDR19_Y1230] yielded a phosphorylation enrichment of 0.631.

Molecular target: FGFR3 (UniProt P22607)
Sequence (P22607 whole entry, looked up): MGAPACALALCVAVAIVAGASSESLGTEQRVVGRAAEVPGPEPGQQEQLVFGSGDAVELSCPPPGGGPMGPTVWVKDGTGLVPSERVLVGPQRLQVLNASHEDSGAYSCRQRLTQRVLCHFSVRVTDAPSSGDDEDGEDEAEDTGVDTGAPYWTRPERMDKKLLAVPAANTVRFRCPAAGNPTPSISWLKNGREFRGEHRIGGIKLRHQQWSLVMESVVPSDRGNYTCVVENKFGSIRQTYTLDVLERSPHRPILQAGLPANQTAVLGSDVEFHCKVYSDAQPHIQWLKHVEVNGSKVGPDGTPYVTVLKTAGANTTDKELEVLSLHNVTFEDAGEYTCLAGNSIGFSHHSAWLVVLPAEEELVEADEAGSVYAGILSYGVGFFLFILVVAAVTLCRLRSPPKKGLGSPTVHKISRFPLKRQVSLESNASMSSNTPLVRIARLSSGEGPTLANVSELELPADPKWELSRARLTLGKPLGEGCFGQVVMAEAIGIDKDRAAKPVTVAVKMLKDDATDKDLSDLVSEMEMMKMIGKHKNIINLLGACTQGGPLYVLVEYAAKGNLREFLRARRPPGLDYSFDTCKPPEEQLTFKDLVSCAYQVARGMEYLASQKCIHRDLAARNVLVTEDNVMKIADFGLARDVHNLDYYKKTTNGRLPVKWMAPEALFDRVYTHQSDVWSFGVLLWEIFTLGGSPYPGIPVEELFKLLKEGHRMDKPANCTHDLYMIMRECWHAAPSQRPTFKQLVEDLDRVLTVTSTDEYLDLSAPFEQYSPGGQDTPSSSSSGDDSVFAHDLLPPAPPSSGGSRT
Assay: as above

Compared with AFGTVYKGLWI [EGFR_Y727], EYGRRYGFSRQ [CCDC93_Y209] is lower in phosphorylation enrichment: 0.755 for the first, 0.588 for the second.

Compared with RLASVYTKRCS [CPT2_Y508_P504L], TLQVMYGCDVG [HLA-B_Y123_S121V] is higher in phosphorylation enrichment: 0.695 for the first, 0.862 for the second.

Going from PVEAAYQKVVA [HBB_Y131_Q128E] to LYSINYLHFGE [KDM4C_Y201], the phosphorylation enrichment rises from 0.617 to 3.52.

First: SSVKLYRVYCD [FGB_Y266_P265L]
Second: VTVLDYDKTGK [SYT1_Y365_I368T]
The phosphorylation enrichment of the first is higher: 0.728 for the first, 0.439 for the second.

First: HFGCVYHGTLL [MET_Y1093]
Second: REGAKYVSHGT [ASS1_Y113_A118T]
The phosphorylation enrichment of the first is higher: 1.19 for the first, 0.482 for the second.

Compared with SLLVVYPWTQR [HBB_Y36_R31S], WQQQSYLDSEI [CTNNB1_Y30_G34E] is higher in phosphorylation enrichment: 0.513 for the first, 0.669 for the second.

Going from PVKSEYSSIKL [NPC2_Y119_P120S] to QKKPCYEIRWK [PDGFRB_Y562_R561C], the phosphorylation enrichment rises from 0.523 to 2.08.

First: VEFAKYGSLQG [RET_Y809_R813Q_YF]
Second: SIKDKHVTALY [KCNH2_Y611_Y611H]
The phosphorylation enrichment of the first is higher: 0.578 for the first, 0.405 for the second.

Going from KNNDGYIDYAE [MCFD2_Y135] to EEGENYQKGEQ [CHGB_Y173_R178Q], the phosphorylation enrichment rises from 0.736 to 0.747.

Compared with EDSEYYRAFEE [CASQ2_Y179_K180R], SYDLDYDSVQP [MYC_Y16_N11S] is lower in phosphorylation enrichment: 1.26 for the first, 0.862 for the second.

Compared with SNKLFYQLEQE [PDPR_Y110_YF], GCAGKYIAMVM [CYP19A1_Y441] is higher in phosphorylation enrichment: 0.692 for the first, 0.702 for the second.

First: FEEDPYLVVNP [MCM6_Y810_YF]
Second: DLAHKYHGGGG [HBB_Y146_A141D]
The phosphorylation enrichment of the first is higher: 1.62 for the first, 0.388 for the second.

Going from AIIGIYILRDN [CDH23_Y2949_D2954N] to NTDETYCIDNE [TUBB2B_Y200], the phosphorylation enrichment rises from 0.793 to 1.14.

First: LFSINYLHFGE [KDM4C_Y201_YF]
Second: QGIPRYHSQSP [FOXF1_Y331]
The phosphorylation enrichment of the first is higher: 0.899 for the first, 0.677 for the second.

Compared with RDLEQYVNNVN [PCDH19_Y1097], KEEEDYKEENN [BMS1_Y651] is lower in phosphorylation enrichment: 0.633 for the first, 0.561 for the second.

Going from SISLKYEGRVF [ABL1_Y167_R166K_YF] to TIQMMYGCDVG [HLA-A_Y123_I121M], the phosphorylation enrichment rises from 0.771 to 0.987.

Work on KIDAKYKKKIE [WDR19_Y1230] yielded a phosphorylation enrichment of 0.368.
